Measurements taken from PMC10798875 (The Journal of Cell Biology, 2024).

What was measured:
[1] = target: karyopherinα (Kapα; importinα1; KPNA2), full-length human (human, UniProt P52292 1-529); experiment: MST
[2] = target: RanGTP (wild-type Ran loaded with GTP) (UniProt P62826 1-216); experiment: MST

Row | Kd [1] | Kd [2] | binding result [1] | Binder
1 | 9.3 ± 2.9 nM | 1400 ± 400 nM |  | cellular apoptosis susceptibility protein (CAS), human wild type (natural protein) MELSDANLQTLTEYLKKTLDPDPAIRRPAEKFLESVEGNQNYPLLLLTLLEKSQDNVIKVCASVTFKNYIKRNWRIVEDEPNKICEADRVAIKANIVHLMLSSPEQIQKQLSDAISIIGREDFPQKWPDLLTEMVNRFQSGDFHVINGVLRTAHSLFKRYRHEFKSNELWTEIKLVLDAFALPLTNLFKATIELCSTHANDASALRILFSSLILISKLFYSLNFQDLPEFFEDNMETWMNNFHTLLTLDNKLLQTDDEEEAGLLELLKSQICDNAALYAQKYDEEFQRYLPRFVTAIWNLLVTTGQEVKYDLLVSNAIQFLASVCERPHYKNLFEDQNTLTSICEKVIVPNMEFRAADEEAFEDNSEEYIRRDLEGSDIDTRRRAACDLVRGLCKFFEGPVTGIFSGYVNSMLQEYAKNPSVNWKHKDAAIYLVTSLASKAQTQKHGITQANELVNLTEFFVNHILPDLKSANVNEFPVLKADGIKYIMIFRNQVPKEHLLVSIPLLINHLQAESIVVHTYAAHALERLFTMRGPNNATLFTAAEIAPFVEILLTNLFKALTLPGSSENEYIMKAIMRSFSLLQEAIIPYIPTLITQLTQKLLAVSKNPSKPHFNHYMFEAICLSIRITCKANPAAVVNFEEALFLVFTEILQNDVQEFIPYVFQVMSLLLETHKNDIPSSYMALFPHLLQPVLWERTGNIPALVRLLQAFLERGSNTIASAAADKIPGLLGVFQKLIASKANDHQGFYLLNSIIEHMPPESVDQYRKQIFILLFQRLQNSKTTKFIKSFLVFINLYCIKYGALALQEIFDGIQPKMFGMVLEKIIIPEIQKVSGNVEKKICAVGITKLLTECPPMMDTEYTKLWTPLLQSLIGLFELPEDDTIPDEEHFIDIEDTPGYQTAFSQLAFAGKKEHDPVGQMVNNPKIHLAQSLHKLSTACPGRVPSMVSTSLNAEALQYLQGYLQAASVTLL
2 |  |  | binds | ∆40NCAS (CAS lacking the first 40 amino acids of the N-terminus) (domain or fragment) NYPLLLLTLLEKSQDNVIKVCASVTFKNYIKRNWRIVEDEPNKICEADRVAIKANIVHLMLSSPEQIQKQLSDAISIIGREDFPQKWPDLLTEMVNRFQSGDFHVINGVLRTAHSLFKRYRHEFKSNELWTEIKLVLDAFALPLTNLFKATIELCSTHANDASALRILFSSLILISKLFYSLNFQDLPEFFEDNMETWMNNFHTLLTLDNKLLQTDDEEEAGLLELLKSQICDNAALYAQKYDEEFQRYLPRFVTAIWNLLVTTGQEVKYDLLVSNAIQFLASVCERPHYKNLFEDQNTLTSICEKVIVPNMEFRAADEEAFEDNSEEYIRRDLEGSDIDTRRRAACDLVRGLCKFFEGPVTGIFSGYVNSMLQEYAKNPSVNWKHKDAAIYLVTSLASKAQTQKHGITQANELVNLTEFFVNHILPDLKSANVNEFPVLKADGIKYIMIFRNQVPKEHLLVSIPLLINHLQAESIVVHTYAAHALERLFTMRGPNNATLFTAAEIAPFVEILLTNLFKALTLPGSSENEYIMKAIMRSFSLLQEAIIPYIPTLITQLTQKLLAVSKNPSKPHFNHYMFEAICLSIRITCKANPAAVVNFEEALFLVFTEILQNDVQEFIPYVFQVMSLLLETHKNDIPSSYMALFPHLLQPVLWERTGNIPALVRLLQAFLERGSNTIASAAADKIPGLLGVFQKLIASKANDHQGFYLLNSIIEHMPPESVDQYRKQIFILLFQRLQNSKTTKFIKSFLVFINLYCIKYGALALQEIFDGIQPKMFGMVLEKIIIPEIQKVSGNVEKKICAVGITKLLTECPPMMDTEYTKLWTPLLQSLIGLFELPEDDTIPDEEHFIDIEDTPGYQTAFSQLAFAGKKEHDPVGQMVNNPKIHLAQSLHKLSTACPGRVPSMVSTSLNAEALQYLQGYLQAASVTLL
